The target of the data set is DNMT1 (human) (UniProt P26358). Kind of data set: EMSA. The note with it: 50 mM Tris-HCl pH 7.5, 100 mM KCl (or LiCl), 2.5 mM MgCl2, 0.1 mM ZnCl2, 2 mM BME, 0.05% NP40, 5% glycerol, 0.1 mg/mL BSA, 0.1 mg/mL yeast tRNA, 30 C 1 h. Background: A gel shift assay detects complexes by their altered migration in electrophoresis.
Sequence of DNMT1 (human) (P26358 whole entry): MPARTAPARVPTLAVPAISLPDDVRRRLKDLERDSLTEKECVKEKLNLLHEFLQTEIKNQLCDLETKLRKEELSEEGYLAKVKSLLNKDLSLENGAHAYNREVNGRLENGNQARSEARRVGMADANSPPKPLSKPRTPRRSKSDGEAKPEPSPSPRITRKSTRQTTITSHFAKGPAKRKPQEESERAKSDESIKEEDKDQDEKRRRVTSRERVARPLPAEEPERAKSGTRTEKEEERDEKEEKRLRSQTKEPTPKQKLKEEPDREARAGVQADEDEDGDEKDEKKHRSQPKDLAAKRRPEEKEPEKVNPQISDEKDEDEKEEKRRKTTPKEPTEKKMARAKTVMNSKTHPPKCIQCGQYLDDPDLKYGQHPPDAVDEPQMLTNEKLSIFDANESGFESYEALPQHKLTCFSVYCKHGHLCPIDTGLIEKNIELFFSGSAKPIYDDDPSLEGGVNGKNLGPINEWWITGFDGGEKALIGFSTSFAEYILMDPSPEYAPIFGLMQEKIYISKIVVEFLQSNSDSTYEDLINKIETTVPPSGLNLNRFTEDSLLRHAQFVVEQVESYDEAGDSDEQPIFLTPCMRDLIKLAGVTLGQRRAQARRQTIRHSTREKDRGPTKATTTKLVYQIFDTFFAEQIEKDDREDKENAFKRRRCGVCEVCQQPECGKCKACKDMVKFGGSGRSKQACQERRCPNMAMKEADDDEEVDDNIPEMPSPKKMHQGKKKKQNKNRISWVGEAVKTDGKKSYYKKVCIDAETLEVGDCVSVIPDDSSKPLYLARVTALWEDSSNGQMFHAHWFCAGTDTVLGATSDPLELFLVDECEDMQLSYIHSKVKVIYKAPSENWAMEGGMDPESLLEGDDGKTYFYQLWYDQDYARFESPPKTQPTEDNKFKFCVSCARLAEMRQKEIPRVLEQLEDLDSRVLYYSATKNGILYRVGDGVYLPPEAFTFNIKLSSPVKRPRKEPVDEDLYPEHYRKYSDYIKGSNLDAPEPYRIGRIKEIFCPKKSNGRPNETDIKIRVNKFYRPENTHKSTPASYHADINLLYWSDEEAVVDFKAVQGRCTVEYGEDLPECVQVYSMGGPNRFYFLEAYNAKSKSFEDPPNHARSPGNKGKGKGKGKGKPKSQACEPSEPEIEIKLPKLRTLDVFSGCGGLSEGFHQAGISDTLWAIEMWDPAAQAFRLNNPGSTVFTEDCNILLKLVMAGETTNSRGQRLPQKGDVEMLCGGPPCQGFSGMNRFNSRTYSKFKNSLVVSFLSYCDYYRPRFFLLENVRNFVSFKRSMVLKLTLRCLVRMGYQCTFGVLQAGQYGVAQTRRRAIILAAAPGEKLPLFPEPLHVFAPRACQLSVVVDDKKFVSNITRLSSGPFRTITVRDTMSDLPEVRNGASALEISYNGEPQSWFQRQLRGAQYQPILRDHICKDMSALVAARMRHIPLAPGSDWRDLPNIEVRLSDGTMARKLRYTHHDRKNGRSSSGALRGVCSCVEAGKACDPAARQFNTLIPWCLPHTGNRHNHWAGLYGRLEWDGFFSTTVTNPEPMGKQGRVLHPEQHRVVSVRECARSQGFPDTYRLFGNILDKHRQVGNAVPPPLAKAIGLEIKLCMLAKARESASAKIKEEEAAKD

One may read the Kd as the equilibrium constant for the complex coming apart. A low value points to a tighter complex. In turn, “UUCUGCCCUCCCGUCACCCCUGUUUCUGGCACCAGGAAUCCCCAACAUGCACUGAUGUUGUGUUUUUAACAUGUCAAUCUGUCCGUUCACAUGUGUGGUACAUGGUGUUUGUGGCCUUGGCUGACAUGAAGCUGUUGUGUGAGGUUCGCUUAUCAACUAAUGAUUUAGUGAUCAAAUUGUGCAGUACUUUGUGCAUUCUGGAUUUUAAAAGUUUUUUAUUAUGCAUUAUAUCAAAUCUACCACUGUAUGAGUGGAAAUUAAGACUUUAUGUAGUUUUUAUAUGUUGUAAUAUUUCUUCAAAUAAAUCUCUCCUAUAAACCA [DNMT1 3'UTR WT]” gave a Kd of 69 nM.
Turning to “UUCCACCCUCCCACCACCCCUACUUCCAGCACCAGGAAUCCCCAACACACACCAACAUCACAUUUUUAACACAUCAAUCUACCCACUCACACACACAACACACAACACUUACGGCCUCAGCCAACACAAAGCCAUCACACAAGACUCGCUUAUCAACUAACAAUUUAACGAUCAAAUCACACAACACUUUACGCAUUCCAGAUUUUAAAAACUUUUUAUUACACAUUAUAUCAAAUCUACCACCAUACAAGCAGAAAUUAAGACUUUACAUAACUUUUAUACAUUACAAUAUUUCUUCAAAUAAAUCUCUCCUAUAAACCA [DNMT1 3'UTR GU mutant (all GU/UG to AC/CA)]”, the binding signal (fold weaker than WT 3'UTR) came to 2.
As to “UUCUGCCCUCCCGUCACCCCUGUUUCUGGCACCAGGAAUCCCCAACAUGCACUGACACCACACUUUUAACAUGUCAAUCUGUCCGUUCACACACACAACACACAACACCCACAGCCUUGGCUGACAUGAAGCCACCACACAAGGUUCGCUUAUCAACUAAUGAUUUAGUGAUCAAAUUGUGCAGUACUUUGUGCAUUCUGGAUUUUAAAAGUUUUUUAUUAUGCAUUAUAUCAAAUCUACCACUGUAUGAGUGGAAAUUAAGACUUUAUGUAGUUUUUAUAUGUUGUAAUAUUUCUUCAAAUAAAUCUCUCCUAUAAACCA”, the binding signal (fold weaker than WT 3'UTR) was determined as 3.

The values are drawn from paper PMC9945446.
